Positions of bridges follow the written chain, without caps; N, C: chain ends. Residues, ends and D or L forms follow the SMILES beside them. No end group written: not given here.
How the values were obtained:
LRP6 E1 = molecular target: T1, LRP6 E1 (Homo sapiens, UniProt O75581); assay: Synthetic peptide competition binding to LRP6 E1; conditions: synthetic peptides
T1 construct: construct E1-amino acids A20-D325 of LPR6; made in house; host or cells: Tni insect cells (baculovirus, secreted)
T1 sequence (O75581 20-325): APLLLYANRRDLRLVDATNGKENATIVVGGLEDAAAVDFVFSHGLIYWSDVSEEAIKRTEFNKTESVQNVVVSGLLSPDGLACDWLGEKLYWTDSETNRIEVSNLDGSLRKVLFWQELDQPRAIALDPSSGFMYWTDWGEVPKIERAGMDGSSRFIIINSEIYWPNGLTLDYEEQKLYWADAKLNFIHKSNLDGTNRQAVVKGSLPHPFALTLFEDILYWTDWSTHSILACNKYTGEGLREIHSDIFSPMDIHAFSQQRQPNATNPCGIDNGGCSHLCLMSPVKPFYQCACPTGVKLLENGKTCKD
Protocol: Alternatively, affinities were determined by fluorescence polarization (FP). A fluorescein-modified peptide probe (30 nM) was mixed with LRP5 or LRP6 E1 domain at a concentration suitable for the affinity of the particular target-probe combination (approximately Kd). Competing test agent (protein or peptide) was then added and FP monitored as a function of concentration of the test agent Inhibition constants were obtained by fitting the resulting curves to standard equations using the program KaleidaGraph (Synergy Software).
Peptide affinities were also determined by competition with phage displaying a binding peptide (competition phage ELISA). Serial dilutions of test peptide were mixed with an appropriate (non-saturating) concentration of phage before exposing the mixture to target and allowing it to reach equilibrium. After washing to remove unbound material, bound phage were detected by incubation with anti-M13 antibody-horseradish peroxidase (HRP) conjugate and exposure to a suitable colorometric HRP substrate.
Finally, peptide affinities were also determined by competition ELISA. Maxi-Sorb plates (Nunc) were coated with streptavidin or NeutrAvidin (5 μg/mL in phosphate-buffered saline (PBS); overnight, 4° C.) then blocked with 0.2% bovine serum albumin (BSA) in PBS (1 h, room temperature). A solution (500 nM in PBS) of biotinylated E1-binding peptide Ac-[…](biotin)-am (disulfide) was added to each well for 30 min, and the wells were then washed 3× with PBS containing 0.05% Tween-20 to remove excess peptide. His-tagged E1 domain or FLAG-tagged E1E2 protein (5-10 nM final concentration) was preincubated for 15 minutes with serially diluted test peptide before addition of the mixture to wells of the assay plate for 30 min. Wells were washed and then probed for bound LRP6 by addition of Qiagen penta His-HRP conjugate or Sigma anti-FLAG M2 HRP conjugate (1:2000 dilution in PBS, 0.2% BSA, 0.05% Tween-20) for 30 min. After washing, TMB substrate was added (Kirkegaard and Perry Laboratories). Wells were quenched with 1 M H3PO4 and plates read at 450 nm. […]

[1] = molecular target: T2, human LRP6 construct E1 (amino acids A20-D325) (human, UniProt O75581 20-325); assay: X-ray co-crystal structure
T2 construct: range 20-325; In the Fab crystal E1 arose from E1E2 degraded beyond Arg 335; residues Ala20 to Lys324 were traced; also called LRP6 E1; E1 domain
T2 sequence (looked up): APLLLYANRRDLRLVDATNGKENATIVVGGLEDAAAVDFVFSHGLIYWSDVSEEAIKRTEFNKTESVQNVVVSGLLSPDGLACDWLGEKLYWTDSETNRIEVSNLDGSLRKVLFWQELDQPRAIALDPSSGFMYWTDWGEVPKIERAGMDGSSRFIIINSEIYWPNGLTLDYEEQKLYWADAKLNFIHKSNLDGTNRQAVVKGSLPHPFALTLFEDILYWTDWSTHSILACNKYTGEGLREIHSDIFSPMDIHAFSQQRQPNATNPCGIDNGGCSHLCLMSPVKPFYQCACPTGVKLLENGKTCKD
Source text: The diffraction data were collected using a monochromatic X-ray beam (12398.1 eV) at the Advanced Light Source (ALS) beam line 5.0.2. The X-ray detection device was an ADSC quantum-210 CCD detector placed 350 mm away from the crystal. Alternatively, data were collected at Stanford Synchrotron Radiation Laboratory (SSRL71), Advanced Photon Souce (APS211DF), or in-house using a Rigaku X-ray generator model 007HF coupled to a Rigaku CCD camera (007HF/Saturn 944+). Prior to data collection, crystals were transferred into cryo-protective solutions containing 25% glycerol, followed by flash freezing in liquid nitrogen. Rotation method was applied to a single crystal for collection of the complete data set, with 1° oscillation per frame and total wedge size of 180°. The data were then indexed, integrated, and scaled using program HKL2000 (45). The LRP6 E1/Fab structure was phased by the molecular replacement (MR) method using program Phaser (CCP4, Daresbury, England). […] The search models of Fab subunits were derived from the crystal structure of an HGFA/Fab complex (46). The search model of the β-propeller domain was a homology model generated through the ESyPred3D web server (47); the structure of the extracellular domain of LDL receptor (48) was used as the homology modeling template. […] LRP6-peptide complex structures were determined by molecular replacement, using the LRP6E1 domain from the Fab complex as the search model. Peptides were built manually into the electron density. Manual rebuilding was done with the program COOT (49). Structure refinement was carried out with programs REFMAC5 (50) and PHENIX (51) using the maximum likelihood target functions, anisotropic individual B-factor refinement (peptide complexes only.

[2] = test system: LRP6 E1E2 variants with LRP5 BMD substitutions; assay: Steady-state affinity for LRP6 E1E2 variants carrying LRP5 BMD substitutions; format: binding, human
Protocol: FIG. 13. Introduction of LRP5 BMD substitutions into LRP6 E1E2 lowers affinity for Wnt inhibitors. The five substitutions characterized are indicated on the y-axis. Steady-state affinity measurements were made for Wnt9b, Dkk1, and sclerostin binding to each of the LRP6 variants.
(§1) Binding kinetics were measured by biolayer interferometry using an Octet Red instrument (ForteBio) as previously described (11). Streptavidin (SA) biosensors were loaded with biotinylated hLRP6 in 50 mMTris, pH 8, 300 mM NaCl, 5% (v/v) glycerol, and 0.05% (w/v) Triton X-100. The loaded biosensors were washed in the same buffer before carrying out association and dissociation measurements for the indicated times. The Kd of each interaction was determined using steady state-analysis through the Octet Red software v6.3. Each reported value represents an average of three or more experiments at different concentrations, with a fitted experimental curve for which the square of the correlation coefficient (R^2) is above 0.96.
Cells transfected with LRP5 variants carrying BMD mutations show reduced binding to sclerostin and are less sensitive to sclerostin inhibition of Wnt10b or Wnt6 signaling (70). To further test the effects of the BMD substitutions, we introduced several of them into LRP6 E1E2, with the results shown in FIG. 13. LRP6 E1E2 Gly158Val could not be expressed in insect cells. […] Importantly, not only is the binding to sclerostin affected (70), but the binding of Dkk1 to its E1 interaction site is also impaired.

Wnt1-dependent signaling = assay: Wnt-dependent TOPbrite luciferase reporter assay, cells transfected with Wnt1; format: cell-based; conditions: cells stably transfected with reporter, transiently with Wnt1
Protocol: FIG. 12. Induction of a Wnt/β-catenin reporter in the presence or absence of wild-type and mutant inhibitors. Cells were transfected by Wnt1 (binds to LRP6 E1E2). Dkk1 and sclerostin variants, or the control inhibitor Fz8 CRD, were used at the indicated doses.
Wnt signaling was assessed either in mouse fibroblast L-cells or in HEK293s cells. The luciferase reporter assay in 293 cells was performed as described (52). The mouse fibroblast L-cell imaging assay was conducted essentially as described(53). Cells were treated with Wnt3a, Fz8 CRD ((US Patent Publication 20080299136; (54), LRP6, or Dkk1, or combinations of these proteins, as indicated and processed after an additional 6 h at 37° C./5% CO2.
To test whether the observed effects on binding between purified proteins were relevant to cellular signaling, Dkk1 and sclerostin activities were tested further in a Wnt-dependent TOPbrite luciferase reporter assay (52). Cells stably transfected with reporter were transfected transiently with Wnt1. The Wnt-transfected cells were treated with purified Dkk1 or sclerostin variants, and the effect on reporter induction was measured (FIG. 12). […] This is consistent with earlier observations that Wnt1 belongs to a class of Wnts signaling through the E1E2 portion of to LRP5/6 (11, 52). The Dkk1 and sclerostin mutants show activities consistent with their binding to LRP6 (FIG. 12). Sclerostin Ile119Glu (“NXI” motif) is impaired relative to wild-type in its ability to inhibit Wnt1-driven signaling, as is Dkk1 Ile42Glu.

[3] = molecular target: T3, human LRP6 construct E1E2 (amino acids A20-E631) (human, UniProt O75581 20-631, biotinylated for biolayer interferometry); assay: BLI affinity
T3 construct: range 20-631; also called LRP6 E1E2
T3 sequence (looked up): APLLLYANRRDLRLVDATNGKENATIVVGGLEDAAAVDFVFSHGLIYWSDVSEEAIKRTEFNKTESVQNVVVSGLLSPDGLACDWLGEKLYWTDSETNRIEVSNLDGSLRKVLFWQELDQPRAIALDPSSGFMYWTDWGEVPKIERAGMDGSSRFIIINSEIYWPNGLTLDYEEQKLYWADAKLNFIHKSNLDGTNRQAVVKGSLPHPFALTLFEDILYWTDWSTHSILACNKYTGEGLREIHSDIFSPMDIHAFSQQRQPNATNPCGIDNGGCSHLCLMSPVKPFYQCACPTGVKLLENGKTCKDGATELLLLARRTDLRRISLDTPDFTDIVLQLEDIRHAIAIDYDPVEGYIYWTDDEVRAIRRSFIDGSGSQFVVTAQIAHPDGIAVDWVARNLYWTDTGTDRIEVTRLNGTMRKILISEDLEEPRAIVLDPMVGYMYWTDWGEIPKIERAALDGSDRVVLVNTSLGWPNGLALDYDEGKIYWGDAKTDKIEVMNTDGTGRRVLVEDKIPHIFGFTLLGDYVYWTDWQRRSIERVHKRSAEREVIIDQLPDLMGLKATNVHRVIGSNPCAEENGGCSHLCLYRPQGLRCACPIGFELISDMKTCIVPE
Protocol: as §1, with “(R²)” for “(R^2)”

## CC[C@H](C)[C@@H]1NC(=O)[C@H](CO)NC(=O)[C@H](CC(N)=O)NC(=O)[C@H]([C@@H](C)O)NC(=O)[C@@H](NC(=O)[C@@H](N)CO)CSSC[C@@H](C(=O)N[C@@H](Cc2ccc(O)cc2)C(=O)NCC(=O)O)NC(=O)[C@H](CCC(N)=O)NC(=O)[C@@H]2CCCN2C(=O)[C@@H]2CCCN2C1=O [BBI mimetic] (H-SCTNSIPPQCYG-OH; disulfide 2-10; N-terminus and C-terminus assumed)
LRP6 E1
  binding / affinity for LRP6 E1 (in words): binds

## amide-cyclized variant of the Dkk1 7-mer peptide: Dkk1 7-mer with Ser2 substituted by Lys and Asn7 by Asp, side chains joined by an amide bond (NKNAIKD; lactam 2-7)
LRP6 E1; listed as cyclized peptide
  binding / affinity for LRP6 E1 (in words): binds
LRP6 E1; listed as target cyclic peptide
  binding / affinity for LRP6 E1 (in words): affinity equivalent to the parent Dkk1 peptide

B1: Ac-SNSIKFYA-am (peptide)
peptide: Ac-SNSIKFYA-NH2
notes: also called linear peptide from Exemplary Family 1; parent Ile peptide
[1]
  binding result: binds

B2: Wnt9b: Wnt9b, carrier-free protein from R&D Systems (protein, UniProt O14905 23-357, looked up)
Protein Wnt-9b: SYFGLTGREVLTPFPGLGTAAAPAQGGAHLKQCDLLKLSRRQKQLCRREPGLAETLRDAAHLGLLECQFQFRHERWNCSLEGRMGLLKRGFKETAFLYAVSSAALTHTLARACSAGRMERCTCDDSPGLESRQAWQWGVCGDNLKYSTKFLSNFLGSKRGNKDLRARADAHNTHVGIKAVKSGLRTTCKCHGVSGSCAVRTCWKQLSPFRETGQVLKLRYDSAVKVSSATNEALGRLELWAPARQGSLTKGLAPRSGDLVYMEDSPSFCRPSKYSPGTAGRVCSREASCSSLCCGRGYDTQSRLVAFSCHCQVQWCCYVECQQCVQEELVYTCKH
[2]
  effect of LRP6 BMD mutations on binding to LRP6 E1E2 (in words): little to no effect
[2]; five substitutions characterized
  change in affinity for the LRP6 E1E2 BMD variants compared to wild type: ≤ 5 fold

B3: Ac-GSLCSNRIKPDTHCSS-am (disulfide) (peptide)
peptide: Ac-GSLCSNRIKPDTHCSS-NH2
modifications: disulfide 4-14 (inferred)
notes: also called Peptide C; CX9C class member of Exemplary Family 2
[1]
  binding result: binds

B4: Ac-CNSIKLC-am (disulfide) (peptide)
peptide: Ac-CNSIKLC-NH2
modifications: disulfide 1-7 (inferred)
notes: also called CX5C class member of Exemplary Family 2
[1]
  binding result: binds

B5: Ac-CNSIKCL-am (disulfide) (peptide)
peptide: Ac-CNSIKCL-NH2
modifications: disulfide 1-6 (inferred)
notes: also called CX4C class member of Exemplary Family 2
[1]
  binding result: binds

B6: Sclerostin Ile119Glu (ligand, UniProt Q9BQB4 24-213, looked up)
chain: QGWQAFKNDATEIIPELGEYPEPPPELENNKTMNRAENGGRPPHHPFETKDVSEYSCRELHFTRYVTDGPCRSAKPVTELVCSGQCGPARLLPNAEGRGKWWRPSGPDFRCIPDRYRAQRVQLLCPGGEAPRARKVRLVASCKCKRLTRFHNQSELKDFGTEAARPQKGRKPRPRARSAKANQAELENAY
notes: also called sclerostin I119E
Wnt1-dependent signaling
  inhibition of Wnt1-dependent signaling (reporter induction): impaired
[3]
  fold loss in affinity against wild-type sclerostin: 19 fold

From US20140235820A1, “METHODS AND COMPOSITIONS FOR MODULATING THE Wnt PATHWAY” (Genentech, Inc., priority 2010, published 2014)
